Reference: patent publication US20210145976A1 (ARO BIOTHERAPEUTICS, published 2021)

Experiments:
[1] = target: T1, recombinant biotinylated CD71 extracellular domain (Sino Biologics) with an N-terminal 6His tag (human, UniProt P02786 89-760, biotinylated (sites not given)); experiment: screening ELISA
T1 construct: extracellular domain; also called hCD71; huCD71

[2] = target: T1, recombinant biotinylated CD71 …; experiment: screening ELISA, ratio
CD71 on SK-BR-3 cells = CD71 on SK-BR-3 cells (human, UniProt P02786 1-760); experiment: cell-based or functional assay
Sequence of CD71 on SK-BR-3 cells (P02786 whole entry): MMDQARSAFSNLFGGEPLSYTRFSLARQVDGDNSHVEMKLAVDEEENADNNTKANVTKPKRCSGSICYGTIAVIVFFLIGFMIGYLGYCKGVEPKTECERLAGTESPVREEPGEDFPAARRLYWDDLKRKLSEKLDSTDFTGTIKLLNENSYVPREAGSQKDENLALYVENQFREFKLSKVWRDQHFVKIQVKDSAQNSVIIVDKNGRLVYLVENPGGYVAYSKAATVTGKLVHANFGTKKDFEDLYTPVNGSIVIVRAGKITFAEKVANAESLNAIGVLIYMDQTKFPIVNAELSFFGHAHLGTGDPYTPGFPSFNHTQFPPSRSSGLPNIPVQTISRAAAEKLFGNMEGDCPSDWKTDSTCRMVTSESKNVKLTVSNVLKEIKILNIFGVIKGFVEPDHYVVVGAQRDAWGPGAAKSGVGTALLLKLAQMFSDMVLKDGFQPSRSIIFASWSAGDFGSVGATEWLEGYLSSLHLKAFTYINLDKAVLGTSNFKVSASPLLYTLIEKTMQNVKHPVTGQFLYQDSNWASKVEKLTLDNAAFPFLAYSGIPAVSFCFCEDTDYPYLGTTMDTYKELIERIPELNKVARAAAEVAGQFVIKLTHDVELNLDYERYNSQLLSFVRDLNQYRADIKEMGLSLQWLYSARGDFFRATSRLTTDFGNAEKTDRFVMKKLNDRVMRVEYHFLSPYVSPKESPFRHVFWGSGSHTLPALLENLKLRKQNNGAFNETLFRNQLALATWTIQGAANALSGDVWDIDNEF

T1 sequence (P02786 other isoform, or with tags, fused parts or gaps): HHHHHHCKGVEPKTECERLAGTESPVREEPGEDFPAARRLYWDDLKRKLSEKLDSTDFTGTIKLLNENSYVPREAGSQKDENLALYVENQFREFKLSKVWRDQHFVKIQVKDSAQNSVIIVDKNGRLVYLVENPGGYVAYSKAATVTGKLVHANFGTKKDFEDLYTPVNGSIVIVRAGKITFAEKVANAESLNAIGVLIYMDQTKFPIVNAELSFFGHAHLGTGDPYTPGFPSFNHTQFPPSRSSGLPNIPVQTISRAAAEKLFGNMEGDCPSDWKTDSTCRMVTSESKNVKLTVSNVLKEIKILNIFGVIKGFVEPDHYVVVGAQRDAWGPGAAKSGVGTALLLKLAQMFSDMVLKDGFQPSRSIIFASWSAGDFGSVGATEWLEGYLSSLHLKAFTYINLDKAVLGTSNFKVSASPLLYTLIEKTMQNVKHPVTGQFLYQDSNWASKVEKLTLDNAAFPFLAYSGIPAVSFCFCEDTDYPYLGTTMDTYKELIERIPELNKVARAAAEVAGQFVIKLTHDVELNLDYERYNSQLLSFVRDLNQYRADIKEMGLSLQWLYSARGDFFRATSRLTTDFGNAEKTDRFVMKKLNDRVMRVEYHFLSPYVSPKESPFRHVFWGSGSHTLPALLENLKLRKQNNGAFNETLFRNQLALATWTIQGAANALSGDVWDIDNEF

B1: SEQ ID NO 301 (designed binder)
chain: MLPAPKNLVVSRVTEDSARLSWTAPDAAFDSFEIEYDEPYRGGEAIVLTVPGSERSYDLTSLKPGTEYPVSIGGVKGGITSDPLSAIFTT
notes: FN3 domain
- hCD71 [1]: 660000
- hCD71:HSA [2]: 55

B2: SEQ ID NO 290 (designed binder)
chain: MLPAPKNLVVSRVTEDSARLSWTAPDAAFDSFFYLEQAWGGEAIVLTVPGSERSYDLTGLKPGTEYWVEITGVKGGYASSPLSAIFTT
notes: FN3 domain
- hCD71 [1]: 2.81e+06
- hCD71:HSA [2]: 237

B3: SEQ ID NO 297 (designed binder)
chain: MLPAPKNLVVSRVTEDSARLSWTAPDAAFDSFLIPYAETSPSGEAITLFVPGSERSYDLTGLKPGTEYNVVIQGVKGGRPSNPLVAASTT
notes: FN3 domain
- hCD71 [1]: 2.59e+06
- hCD71:HSA [2]: 49

B4: SEQ ID NO 308 (designed binder)
chain: MLPAPKNLVVSEVTEDSARLSWQGVARAFDSFLITYREQIFAGEVIVLTVPGSERSYDLTGLKPGTEYPVWIQGVKGGSPSAPLSAISTT
notes: FN3 domain
- hCD71 [1]: 609000
- hCD71:HSA [2]: 50

B5: SEQ ID NO 277 (designed binder)
chain: MLPAPKNLVVSRVTEDSARLSWTAPDAAFDSFWINYYEGIGEGEAIVLTVPGSERSYDLTGLKPGTEYYVDISGVKGGSYSLPLSAIFTT
notes: FN3 domain
- hCD71 [1]: 3.11e+06
- hCD71:HSA [2]: 598

B6: SEQ ID NO 83 (designed binder)
chain: MLPAPKNLVVSRVTEDSARLSWTAPDAAFDSFYIYYYESSGTGEAIVLTVPGSERSYDLTGLKPGTEYFVDIGGVKGGSYSLPLSAIFTT
notes: FN3 domain
- hCD71 [1]: 1.93e+06
- hCD71:HSA [2]: 1480

B7: SEQ ID NO 294 (designed binder)
chain: MLPAPKNLVVSRVTEDSARLSWTAPDAAFDSFSIIYSEWNVTGEAIVLTVPGSERSYDLTGLKPGTEYDVWIEGVKGGGMSKPLSAISTT
notes: FN3 domain
- hCD71 [1]: 1.44e+06
- hCD71:HSA [2]: 174

B8: SEQ ID NO 309 (designed binder)
chain: MLPAPKNLVVSRVTEDSARLSWTAPDAAFDSFIIDYLELDQEGEAIVLTVPGSERSYDLTGLKPGTEYAVYIFGVKGGYPSTPLSAIFTT
notes: FN3 domain
- hCD71 [1]: 3.14e+06
- hCD71:HSA [2]: 1100

B9: SEQ ID NO 286 (designed binder)
chain: MLPAPKNLVVSRVTEDSARLSWTAPDAAFDSFNIYYPEFPVRGEAIVLTVPGSERSYDLTGLKPGTEYVVSIWGVKGGTQSWPLSAIFTT
notes: FN3 domain
- hCD71 [1]: 1.27e+06
- hCD71:HSA [2]: 118

B10: SEQ ID NO 85 (designed binder)
chain: MLPAPKNLVVSRVTEDSARLSWTAPDAAFDSFFIWYWEKSVDGEAIVLTVPGSERSYDLTGLKPGTEYNVGIQGVKGGTPSDPLSAIFTT
notes: FN3 domain
- hCD71 [1]: 2.91e+06
- hCD71:HSA [2]: 1160
- IC50, SKBR-3 viability, MMAF conjugate, second unlabelled column (+/- human transferrin) (CD71 on SK-BR-3 cells): 89 nM

B11: SEQ ID NO 212 (designed binder)
chain: MLPAPKNLVVSRVTEDSARLSWTAPDAAFDSFIIEYWEQIGVGEAIVLTVPGSERSYDLTGLKPGTEYWVGIYGVKGGLLSSPLSAIFTT
notes: FN3 domain
- hCD71 [1]: 2.49e+06
- hCD71:HSA [2]: 1110
- IC50, SKBR-3 viability, MMAF conjugate, second unlabelled column (+/- human transferrin) (CD71 on SK-BR-3 cells): 6.69 nM

B12: SEQ ID NO 233 (designed binder)
chain: MLPAPKNLVVSRVTEDSARLSWTAPDAAFDSFYIVYAEPIPNGEAIVLTVPGSERSYDLTGLKPGTEYSVLIHGVKGGRNSDPLSAIFTT
notes: FN3 domain
- hCD71 [1]: 3.41e+06
- hCD71:HSA [2]: 1310
- IC50, SKBR-3 viability, MMAF conjugate, first unlabelled column (+/- human transferrin) (CD71 on SK-BR-3 cells): 54.6 nM
- IC50, SKBR-3 viability, MMAF conjugate, second unlabelled column (+/- human transferrin) (CD71 on SK-BR-3 cells): 17.7 nM

B13: SEQ ID NO 136 (designed binder)
chain: MLPAPKNLVVSRVTEDSARLSWTAPDAAFDSFFIYYIESYPAGEAIVLTVPGSERSYDLTGLKPGTEYWMGIDGVKGGRWSTPLSAIFTT
notes: FN3 domain
- hCD71 [1]: 4.03e+06
- hCD71:HSA [2]: 706
- IC50, SKBR-3 viability, MMAF conjugate, first unlabelled column (+/- human transferrin) (CD71 on SK-BR-3 cells): 2.32 nM
- IC50, SKBR-3 viability, MMAF conjugate, second unlabelled column (+/- human transferrin) (CD71 on SK-BR-3 cells): 0.503 nM

B14: SEQ ID NO 96 (designed binder)
chain: MLPAPKNLVVSRVTEDSARLSWTAPDAAFDSFFIGYLEPQPPGEAIVLTVPGSERSYDLTGLKPGTEYNVTIQGVKGGFPSMPLSAIFTT
- IC50, SKBR-3 viability, MMAF conjugate, first unlabelled column (+/- human transferrin) (CD71 on SK-BR-3 cells): 79.5 nM
- IC50, SKBR-3 viability, MMAF conjugate, second unlabelled column (+/- human transferrin) (CD71 on SK-BR-3 cells): 27 nM

B15: SEQ ID NO 237 (designed binder)
chain: MLPAPKNLVVSRVTEDSARLSWTAPDAAFDSFTILYGEMGTTGEAIVLTVPGSERSYDLTGLKPGTEYDVFIEGVKGGELSWPLSAIFTT
notes: FN3 domain
- hCD71 [1]: 4.15e+06
- hCD71:HSA [2]: 2240
- IC50, SKBR-3 viability, MMAF conjugate, first unlabelled column (+/- human transferrin) (CD71 on SK-BR-3 cells): 28.1 nM
- IC50, SKBR-3 viability, MMAF conjugate, second unlabelled column (+/- human transferrin) (CD71 on SK-BR-3 cells): 3.76 nM

B16: SEQ ID NO 174 (designed binder)
chain: MLPAPKNLVVSRVTEDSARLSWTAPDAAFDSFFIGYLEPQPPGEAIVLTVPGSERSYDLTGLKPGTEYKVVIQGVKGGTPSEPLSAIFTT
notes: FN3 domain
- hCD71 [1]: 2.42e+06
- hCD71:HSA [2]: 1100
- IC50, SKBR-3 viability, MMAF conjugate, second unlabelled column (+/- human transferrin) (CD71 on SK-BR-3 cells): 158 nM

B17: SEQ ID NO 214 (designed binder)
chain: MLPAPKNLVVSRVTEDSARLSWTAPDAAFDSFAIPYGERQELGEAIVLTVPGSERSYDLTGLKPGTEYFVVIQGVKGGQPSYPLSAIFTT
notes: FN3 domain
- hCD71 [1]: 2.14e+06
- hCD71:HSA [2]: 974
- IC50, SKBR-3 viability, MMAF conjugate, first unlabelled column (+/- human transferrin) (CD71 on SK-BR-3 cells): 28.1 nM
- IC50, SKBR-3 viability, MMAF conjugate, second unlabelled column (+/- human transferrin) (CD71 on SK-BR-3 cells): 29.2 nM

B18: SEQ ID NO 152 (designed binder)
chain: MLPAPKNLVVSRVTEDSARLSWTAPDAAFDSFFIGYLEPQPPGEAIVLTVPGSERSYDLTGLKPGTEYNVTIQGVKGGFPSSPLSAIFTT
notes: FN3 domain
- hCD71 [1]: 2.83e+06
- hCD71:HSA [2]: 534
- IC50, SKBR-3 viability, MMAF conjugate, first unlabelled column (+/- human transferrin) (CD71 on SK-BR-3 cells): 19.6 nM
- IC50, SKBR-3 viability, MMAF conjugate, second unlabelled column (+/- human transferrin) (CD71 on SK-BR-3 cells): 5.24 nM

B19: SEQ ID NO 146 (designed binder)
chain: MLPAPKNLVVSRVTEDSARLSWTAPDAAFDSFYIAYAEPRPDGEAIVLTVPGSERSYDLTGLKPGTEYSVLIHGVKGGLLSSPLSAIFTT
notes: FN3 domain
- hCD71 [1]: 3.07e+06
- hCD71:HSA [2]: 809
- IC50, SKBR-3 viability, MMAF conjugate, first unlabelled column (+/- human transferrin) (CD71 on SK-BR-3 cells): 7.13 nM
- IC50, SKBR-3 viability, MMAF conjugate, second unlabelled column (+/- human transferrin) (CD71 on SK-BR-3 cells): 3.46 nM

B20: SEQ ID NO 149 (designed binder)
chain: MLPAPKNLVVSRVTEDSARLSWTAPDAAFDSFIIPYAEVRPDGEAIVLTVPGSERSYDLTGLKPGTEYSVLIHGVKGGKLSEPLSAIFTT
notes: FN3 domain
- hCD71 [1]: 2.77e+06
- hCD71:HSA [2]: 826
- IC50, SKBR-3 viability, MMAF conjugate, first unlabelled column (+/- human transferrin) (CD71 on SK-BR-3 cells): 9.7 nM
- IC50, SKBR-3 viability, MMAF conjugate, second unlabelled column (+/- human transferrin) (CD71 on SK-BR-3 cells): 5.5 nM

B21: SEQ ID NO 164 (designed binder)
chain: MLPAPKNLVVSRVTEDSARLSWTAPDAAFDSFLIPYAETSPSGEAIVLTVPGSERSYDLTGLKPGTEYSVLIHGVKGGHLSDPLSAIFTT
notes: FN3 domain
- hCD71 [1]: 2.6e+06
- hCD71:HSA [2]: 2370
- IC50, SKBR-3 viability, MMAF conjugate, first unlabelled column (+/- human transferrin) (CD71 on SK-BR-3 cells): 18.7 nM
- IC50, SKBR-3 viability, MMAF conjugate, second unlabelled column (+/- human transferrin) (CD71 on SK-BR-3 cells): 55.8 nM

B22: SEQ ID NO 284 (designed binder)
chain: MLPAPKNLVVSRVTEDSARLSWTAPDAAFDSFFIGYLEPQPPGEAIVLTVPGSERSYDLTGLKPGTEYNVTIQGVKGGFPSMPLSAIFTT
- IC50, SKBR-3 viability, MMAF conjugate, first unlabelled column (+/- human transferrin) (CD71 on SK-BR-3 cells): 98 nM
- IC50, SKBR-3 viability, MMAF conjugate, second unlabelled column (+/- human transferrin) (CD71 on SK-BR-3 cells): 32 nM

B23: SEQ ID NO 197 (designed binder)
chain: MLPAPKNLVVSRVTEDSARLSWTAPDAAFDSFKIDYLEINDNGEAIVLTVPGSERSYDLTGLKPGTEYPVYIWGVKGGYPSSPLSAIFTT
notes: FN3 domain
- hCD71 [1]: 4.57e+06
- hCD71:HSA [2]: 242
- IC50, SKBR-3 viability, MMAF conjugate, second unlabelled column (+/- human transferrin) (CD71 on SK-BR-3 cells): 0.468 nM

B24: SEQ ID NO 257 (designed binder)
chain: MLPAPKNLVVSRVTEDSARLSWTAPDAAFDSFHIVYHEPRPSGEAIVLTVPGSERSYDLTGLKPGTEYEVGIVSVKGGDLSVPLSAIFTT
notes: FN3 domain
- hCD71 [1]: 2.37e+06
- hCD71:HSA [2]: 601
- IC50, SKBR-3 viability, MMAF conjugate, first unlabelled column (+/- human transferrin) (CD71 on SK-BR-3 cells): 22 nM
- IC50, SKBR-3 viability, MMAF conjugate, second unlabelled column (+/- human transferrin) (CD71 on SK-BR-3 cells): 6.5 nM

B25: SEQ ID NO 168 (designed binder)
chain: MLPAPKNLVVSRVTEDSARLSWTTPDAAFDSFFIGYLEPYPPGEAIVLTVPGSERSYDLTGLKPGTEYVVSIQGVKGGKPSDPLSAIFTT
notes: FN3 domain
- hCD71 [1]: 2.9e+06
- hCD71:HSA [2]: 1480
- IC50, SKBR-3 viability, MMAF conjugate, first unlabelled column (+/- human transferrin) (CD71 on SK-BR-3 cells): 32 nM
- IC50, SKBR-3 viability, MMAF conjugate, second unlabelled column (+/- human transferrin) (CD71 on SK-BR-3 cells): 7.2 nM

B26: SEQ ID NO 281 (designed binder)
chain: MLPAPKNLVVSRVTEDSARLSWTAPDAAFDSFYIDYDEIHDWGEAIVLTVPGSERSYDLTGLKPGTEYAVQIGGVKGGSFSWTLSAIFTT
notes: FN3 domain
- hCD71 [1]: 1.07e+06
- hCD71:HSA [2]: 48

B27: SEQ ID NO 292 (designed binder)
chain: MLPAPKNLVVSRVTEDSARLSWTAPDAAFDSFDIAYWELTPSGEAIELLVPGSERSYDLTGLKPGTEYRVDIIGVKGGFISEPLGATFTT
notes: FN3 domain
- hCD71 [1]: 2.62e+06
- hCD71:HSA [2]: 296

B28: SEQ ID NO 299 (designed binder)
chain: MLPAPKNLVVSRVTEDSARLSWTAPDAAFDSFLIEYWESVGYGEAIVLTVPGSERSYDLTGLKPGTEYWVGIYGVKGGYYSRPLSAIFTT
notes: FN3 domain
- hCD71 [1]: 4.27e+06
- hCD71:HSA [2]: 1940

B29: SEQ ID NO 291 (designed binder)
chain: MLPAPKNLVVSRVTEDSARLSWTAPDAAFDSFHIEYEEPETEGEAIYLHVPGSERSYDLTGLKPGTEYKVLIRGVKGGSYSIPLQAPFTT
notes: FN3 domain
- hCD71 [1]: 3.83e+06
- hCD71:HSA [2]: 1780
